Measurements: patent US7101975B1, “Method and composition for inhibition of angiogenesis using antagonists based on MMP-9 and β1 integrins” (University of Southern California, priority 1999, dated 2006)
“Also recorded” adds a separate entry of the source. Where no end group is shown, it is not given here.

Key:
MMP-9 = MMP-9 (Homo sapiens, UniProt P14780); assay: Solid phase binding assay of synthetic peptides to MMP-9; details: solid phase binding assays, FIG. 7
Description: For example, synthetic peptides were generated and analyzed for binding activity to MMP-9. The binding ability of the peptides was analyzed by solid phase binding assays.

[1] = test system: angiogenesis on the CAMs of chick embryos; assay: Chick embryo CAM angiogenesis assay (bFGF-induced); assay type: in vivo; details: 10 day old chick embryos, single IV injection 100 μg 24 h later, counted three days later, FIG. 8B
Source text: For example, one assay measures angiogenesis in the chick chorioallantoic membrane (CAM) and is referred to as the CAM assay. The CAM assay has been described in detail by others, and further has been used to measure both angiogenesis and neovascularization of tumor tissues. See Ausprunk et al., Am. J. Pathol., 79:597-618 (1975) and Ossonski et al., Cancer Res., 40:2300-2309 (1980).
Angiogenesis was induced on the CAMs of 10 day old chick embryos with bFGF. Twenty-four hours later the embryos received a single IV injection with 100 μg of FRIP-1 or AAA control peptide. Three days later angiogenesis was quantified by counting the number of blood vessel branch points within the area of the filter disc. […] FIG. 8B is a quantification of the angiogenesis experiments. […] In FIG. 8B, NT corresponds to No bFGF, FRIP-1 to bFGF+FRIP-1 peptide, and AAA to bFGF+control AAA peptide. Data bars represent the mean±standard errors of 5 to 10 embryos per condition.

MMP-9, sequence (P14780 94-707): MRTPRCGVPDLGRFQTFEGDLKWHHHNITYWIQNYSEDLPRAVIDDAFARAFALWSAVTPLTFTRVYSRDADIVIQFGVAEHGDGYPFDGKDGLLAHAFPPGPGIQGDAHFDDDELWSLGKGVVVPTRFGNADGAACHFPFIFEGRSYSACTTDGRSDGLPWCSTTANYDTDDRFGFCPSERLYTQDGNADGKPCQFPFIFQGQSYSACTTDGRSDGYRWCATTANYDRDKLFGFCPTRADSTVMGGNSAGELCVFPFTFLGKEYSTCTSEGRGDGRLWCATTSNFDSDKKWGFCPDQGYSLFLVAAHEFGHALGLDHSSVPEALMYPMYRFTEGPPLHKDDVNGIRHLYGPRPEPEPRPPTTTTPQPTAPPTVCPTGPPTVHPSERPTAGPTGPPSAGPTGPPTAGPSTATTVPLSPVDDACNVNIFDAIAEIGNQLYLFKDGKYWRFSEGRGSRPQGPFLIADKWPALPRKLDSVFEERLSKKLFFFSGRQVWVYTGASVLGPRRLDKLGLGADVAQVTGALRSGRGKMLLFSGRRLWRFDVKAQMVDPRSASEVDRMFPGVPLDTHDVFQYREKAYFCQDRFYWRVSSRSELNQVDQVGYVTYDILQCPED

Sequence | binding to MMP-9 (MMP-9) | angiogenesis (number of blood vessel branch points within the area of the filter disc) [1]
CRAAAAEPQC (cysteine pairing not given here) [control peptide, reference compound] | binds with substantially reduced affinity | 
CRAAAGEPQC (cysteine pairing not given here) [control peptide identical to FRIP-1 except that 3 key amino acids were changed, reference compound] | little in any binding ability | 
CRLRSGEPQC (cysteine pairing not given here) [synthetic peptide derived from the C-terminal hemopexin-like domain of human MMP-9] | specifically bind to MMP-9; also recorded: binds to MMP-9 | blocks angiogenesis; also recorded: inhibit angiogenesis
